± gives the uncertainty stated by the source.

For 139 substances, amyloid nucleation score results are on record in the supplement of paper PMC12042874.

The data set in a line: amyloid nucleation score (Sup35N fusion, yeast selection) (log enrichment); library NNK2; higher = more nucleation; inactive = no reads after selection. In short, it runs like this: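 Plasmid inserts were Illumina-sequenced at input and output from psi-negative yeast expressing Sup35N fused to peptides of 20 random codons. The yeast were induced with 100 μM copper sulfate for 24 hours and grown 7 days at 30°C on medium lacking adenine and uracil, and sequences with under 100 input reads were excluded. Nucleation score is the DiMSum log enrichment of output over input reads, centred on the mode score of non-aggregating sequences.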
Substance GIDWFTTVMFPAIWVTDILL displayed an amyloid nucleation score of 4.593 ± 0.044. Consider GIFCSVGMLTVCLLVRDKLV, for which the amyloid nucleation score entry was “inactive”. As to GIIRC, the amyloid nucleation score was determined as 0.209 ± 0.5.

Turning to GIIWT, the amyloid nucleation score is -0.078 ± 0.26. On to GILYLSLYDFCV, for which the amyloid nucleation score is -0.763 ± 1. Substance GISAHHALVTLMLMAIVGHY showed an amyloid nucleation score of 1.55 ± 0.55. The figure for GIWITGAWTTSLLCIRTLLG is 0.631 ± 0.43; for GIWNLQYRREV it is 0.596 ± 0.32; for GIYFIYLSM it is 5.918 ± 0.059. The result for GKFQMS reads -0.244 ± 0.56; that for GKFYQMENSV, -1.27 ± 0.78; that for GKGNAFVLNFSYGYRCVYHG, 6.398 ± 0.04.

Regarding GKGSRFRYSIGG, the amyloid nucleation score was found to be 0.943 ± 0.47. Regarding GKIKIEGNDLIGGLQGRLRP, the amyloid nucleation score entry was “inactive”. The result for GKLAARTAINSLFCKLGRRP reads -0.066 ± 0.63.

Substance GKMTPLLVNQTVSYCMLSSM displayed an amyloid nucleation score of 6.273 ± 0.035.

For the substance GKNMRYFRQTGCH, the amyloid nucleation score is -0.39 ± 0.21. GKSYPPHLHHDNNKAYRVLP: the amyloid nucleation score was -0.178 ± 1.1.

As for GKTISNFLGMTTSCEFGR, the amyloid nucleation score was -0.81 ± 1. On to GKVGNNTLSVYGMDTT, for which the amyloid nucleation score entry is “inactive”. The figure for GLCYKFVRFSYA is 2.16 ± 0.1; for GLGAFSSP it is 0.247 ± 0.46. The figure for GLGALVGVTLYRRTQQNMWG is 6.313 ± 0.056; for GLGLSFDVSVVPQDGYGIRL it is -0.492 ± 1.1. GLLEVIF showed an amyloid nucleation score of 0.119 ± 0.74. As to GLLNMCINCGRLFASPGISG, the amyloid nucleation score was -0.285 ± 0.35. Turning to GLMGLYRRALSTLRRILFMR, the amyloid nucleation score was -0.072 ± 0.63. For GLNQSSLCNGEMGYCRIIWR, the amyloid nucleation score is -1.03 ± 1.1. Substance GLNYPAIWEARLKG showed an amyloid nucleation score of 0.703 ± 0.29. Take GLPFLVESMSCPCDLDTVGW: the amyloid nucleation score was 2.27 ± 0.23. The result for GLPSILVYL reads -1.31 ± 0.78. In turn, GLQFSATISYERPVWGGVLR yielded an amyloid nucleation score of 4.64 ± 0.066. The figure for GLRCRYPSRPVTCGLLWGCG is 0.089 ± 0.37; for GLREKDN it is -0.036 ± 0.32; for GLRFC it is “inactive”. Regarding GLRFVYLIYTGRS, the amyloid nucleation score is -0.497 ± 0.64. The figure for GLSIGYSKWETALGITLSNP is -0.864 ± 0.78; for GLSNFYVFAFYRVFFSLIWA it is 3.3 ± 0.067. Consider GLSRVDPWVYQLPSMGSHDS, for which the amyloid nucleation score is 0.706 ± 0.52. GLTFRFGTGTSLSRRFDATV returned an amyloid nucleation score of 6.507 ± 0.045.

On to GLTPSISSLRCIGSRFGKFS, for which the amyloid nucleation score amounted to 0.86 ± 0.46. For GLVVTSNPSDMSVMELCLWF, the amyloid nucleation score was -0.347 ± 0.3. As for GMFIMQNGLFYRQSLVAWW, the amyloid nucleation score is -0.995 ± 0.45. The result for GMGQQEVPNWGMATGCGYEE reads 0.081 ± 1.1; that for GMGVYYVSSFSLRLWNGMTV, 1.65 ± 0.13.

For GMLKTLSMMHTLIWYFLWDT, the amyloid nucleation score was -0.62 ± 0.79.

The substance GMNLNLPTQTHTSVRHNRG registered an amyloid nucleation score of 2.75 ± 0.14. GMNWGWRFVNIFY registered an amyloid nucleation score of 5.848 ± 0.031. Turning to GMSERRWSCQLVGAVHDMAA, the amyloid nucleation score came out at 1.17 ± 0.14.

In the case of GNADRF, the amyloid nucleation score is -1.12 ± 0.63. The figure for GNAQGSTFYVVPFIQYRVFM is 6.744 ± 0.035; for GNCLEYIVRNTIANKRSRML it is -0.114 ± 1.

For the substance GNFWAFISRRQSRGFLDSAL, the amyloid nucleation score is -0.412 ± 1.1. As for GNLSVTAILWLMRYECLNLS, the amyloid nucleation score is -0.431 ± 0.64. Regarding GNLWGYECVYINKQICGSSR, the amyloid nucleation score was determined as 3.49 ± 0.05.

Substance GNRIPVTRGLVKDRSKLVGV yielded an amyloid nucleation score of 0.007 ± 1.1. The result for GNSGYPTV reads 1.02 ± 0.24; that for GPEWSSLGSKVRLHWINSM, 0.626 ± 0.8. The figure for GPSMCFGEFKVYAEVSWSQA is 0.095 ± 0.34; for GPTSVRISPPGVCVLCPPSP it is 0.133 ± 0.31. On to GQACRMYTVSVFVILNLGYQ, for which the amyloid nucleation score was determined as 2.53 ± 0.076. In turn, GQNLDRSVKGWCTASHTGSF came in with an amyloid nucleation score of 0.554 ± 0.54.

In turn, GRENWELHIRYVR displayed an amyloid nucleation score of 4.06 ± 0.063. Take GRFLLSLATVSGLCTSRLEI: the amyloid nucleation score is -0.169 ± 0.39. GRIVRSVLSSIVCILMSYWM: the amyloid nucleation score came to 0.821 ± 0.31. GRLNPPLLLRIRSVSYAIPV displayed an amyloid nucleation score of 0.783 ± 0.58. Regarding GRLSWFS, the amyloid nucleation score is -0.624 ± 0.49. The figure for GRRHVNFCSRTDYRAGPHRY is 0.112 ± 1.1. For the substance GRTGFFYLGAKYVSHEGAGK, the amyloid nucleation score entry is “inactive”. Consider GRVVSSFSLKSDNFMMYFRI, for which the amyloid nucleation score was -1.18 ± 1.1. For GRVWVW, the amyloid nucleation score was 0.718 ± 0.57. As to GRWLSFKFSDDRQRVRYRVH, the amyloid nucleation score was -0.158 ± 0.63.

Consider GSASSCGCMMWQCKAICPNS, for which the amyloid nucleation score is -0.4 ± 0.63. The entry for GSCNVMGRCRIFGLGFWGIV is “inactive”; for GSCPRSDAKSAADCIQV it is -0.177 ± 0.79; for GSGNT it is 0.444 ± 0.56. Take GSKRCSFRGLCIIYSVSMCS: the amyloid nucleation score was 6.996 ± 0.044. The substance GSLKEAAGEYMVCRVRLSVG yielded an amyloid nucleation score of 0.26 ± 0.46. With GSLTKSLSKTTQLR, the amyloid nucleation score result is “inactive”. GSPNLVSV registered an amyloid nucleation score of 0.401 ± 0.56.

In turn, GSRAFALSTCCFMKYGSGMG gave an amyloid nucleation score of 8.075 ± 0.078. The result for GSSNGRALLYCITLKIMGIV reads 0.769 ± 0.4.

Substance GSSWLRPALLVNAMIDWSRV gave an amyloid nucleation score of 0.934 ± 0.36. Consider GSWDFSGAIMGLSYSKTVYI, for which the amyloid nucleation score was -1.18 ± 1.1. Regarding GSYSNAIFIHKLKNKHCFQS, the amyloid nucleation score result was “inactive”. GTLELMHETWVPSLYPVRMQ: the amyloid nucleation score is 0.571 ± 0.4.

Regarding GTLPYDNRTTYAFYLRVCSL, the amyloid nucleation score result was “inactive”. For GTSLYGFSPTAHVRVSHRGE, the amyloid nucleation score turned out to be 0.957 ± 0.47. Regarding GTTMTPFPRKCFRSVILFVG, the amyloid nucleation score is 1.1 ± 0.3.

In turn, GTYAKSMLSSKVVAG returned an amyloid nucleation score of 1.48 ± 0.18. The result for GTYRNIRVWCRFRWVFENGC reads 0.11 ± 0.74; that for GVARESRAGS, 4.96 ± 0.066; that for GVAYRWPFGQK, 0.155 ± 1.1. In turn, GVCNYPPCPGMMKGKTSLGN yielded an amyloid nucleation score of 1.32 ± 0.26.

Consider GVCSSNWVYVLLDVDDVISR, for which the amyloid nucleation score was -0.564 ± 0.39.

As for GVHTLWNRMKWPIENRVYGS, the amyloid nucleation score is 1.59 ± 0.3. GVIKWKRQETLNHSWGSESE registered an amyloid nucleation score of 5.24 ± 0.072. In the case of GVLFAELLIFVVKSSVVV, the amyloid nucleation score amounted to 2.01 ± 0.23. With GVLGLAFDC, the amyloid nucleation score is 0.662 ± 0.81. GVLKVLLLAPISFTVVCHSS yielded an amyloid nucleation score of 3.65 ± 0.055. Substance GVLMCVAVYRFVCMKRSGML came in with an amyloid nucleation score of 0.039 ± 0.19. Substance GVSHMALSSARSFMITDLRS registered an amyloid nucleation score of 3.44 ± 0.14. The result for GVTPG reads 0.752 ± 0.16. GVVTFV registered an amyloid nucleation score of 0.157 ± 0.76. Consider GVVTSSSRYLY, for which the amyloid nucleation score was 0.072 ± 1.1.

In the case of GVYIRVVSHEWVLFW, the amyloid nucleation score result is “inactive”.

Take GWNGNLSGTAHLGSSIVSSG: the amyloid nucleation score is -0.649 ± 0.79. In turn, GWSSSHVWVGLNS showed an amyloid nucleation score of 2.44 ± 0.21. GYASTSKAKISAIRAIRP: the amyloid nucleation score turned out to be 0.339 ± 0.31. For GYAWPRGTSGVA, the amyloid nucleation score was determined as 0.353 ± 0.4. For GYCLMTFLISTCYG, the amyloid nucleation score was 5.166 ± 0.031.

Substance GYCQVKSGCCSGEECCFWMI displayed an amyloid nucleation score of 3.68 ± 0.099. For the substance GYDFT, the amyloid nucleation score entry was “inactive”. The substance GYGWKLQMTGGESCVGSHLR displayed an amyloid nucleation score of 0.388 ± 0.66. Turning to GYNKLSLSL, the amyloid nucleation score was -0.863 ± 0.64. As for GYNQEYRLSTMKAMLGRLLV, the amyloid nucleation score entry is “inactive”. The result for GYRSHSDNNICNVSGSHTYI reads 3.96 ± 0.065; that for GYRSIFLLFFPADHPLHTIY, -0.064 ± 1.1.

Regarding GYSFRYTFCSHSGDVAVVSK, the amyloid nucleation score was -0.739 ± 1. The figure for GYVFYNFFYSAQSRLSSLSN is 0.52 ± 0.15; for GYWTGELH it is “inactive”. For the substance HACGIVHRPLLRD, the amyloid nucleation score was -0.191 ± 0.33. The result for HASVHL reads 0.497 ± 0.34; that for HATVHSSRCHSYHPGL, 6.707 ± 0.054; that for HCNCHRIVYLECVLPYIHCI, -0.919 ± 0.55.

As to HCYSPSKIRVNAIFLHIFL, the amyloid nucleation score entry is “inactive”. Turning to HDPRIYW, the amyloid nucleation score is 0.441 ± 0.27. Regarding HDYVRLPEWFLSMGDHMYMC, the amyloid nucleation score was -0.356 ± 1.1. For the substance HEESDGPNERTILVCSICVI, the amyloid nucleation score came to 0.487 ± 0.28. HEKGIKVVQGGQVYGITVEV: the amyloid nucleation score was 0.093 ± 0.39. The result for HEMVTRQRLVTSRQYLSLGV reads 1.11 ± 0.29; that for HEPNSYHPRVGLIQELWHCG, 0.473 ± 0.45.

As to HESRGCSHKTNSMCGHLILL, the amyloid nucleation score was -0.309 ± 0.45. HEVVKFK displayed an amyloid nucleation score of 0.016 ± 1.1. As for HEYLRGRGTFGNIQDYNKLM, the amyloid nucleation score was -0.447 ± 1.1. On to HEYQFSYDFKFLFGSQIMYM, for which the amyloid nucleation score entry is “inactive”. For the substance HFCYKMRLKDDCVCFKGYTI, the amyloid nucleation score worked out at 4.03 ± 0.058.

HFCYSNNRWVSGAFYVSRPT returned an amyloid nucleation score of 1.78 ± 0.2. With HFKFYRNNYMTVIVHKACDV, the amyloid nucleation score came to 8.665 ± 0.083.
